This is an account of results in article PMC7360590, “Structural basis of SALM3 dimerization and synaptic adhesion complex formation with PTPσ” (Scientific Reports, 2020).

Experiment [1] concerns the target T1, mouse SALM3 LRR-Ig-Fn (residues 17–510), wild type, displayed on HEK293T cells (mouse, UniProt Q80XU8 17-510).
T1 construct: SALM3 (LRFN4), mouse, extracellular LRR-Ig-Fn, residues 17-510; also called WT SALM3; SALM3-pDisplay; source: HEK293T, transfected (pDisplay), on the cell surface; not shown: HA, N-terminal, kept; transmembrane domain (from the vector pDisplay), C-terminal, kept
T1 sequence (looked up): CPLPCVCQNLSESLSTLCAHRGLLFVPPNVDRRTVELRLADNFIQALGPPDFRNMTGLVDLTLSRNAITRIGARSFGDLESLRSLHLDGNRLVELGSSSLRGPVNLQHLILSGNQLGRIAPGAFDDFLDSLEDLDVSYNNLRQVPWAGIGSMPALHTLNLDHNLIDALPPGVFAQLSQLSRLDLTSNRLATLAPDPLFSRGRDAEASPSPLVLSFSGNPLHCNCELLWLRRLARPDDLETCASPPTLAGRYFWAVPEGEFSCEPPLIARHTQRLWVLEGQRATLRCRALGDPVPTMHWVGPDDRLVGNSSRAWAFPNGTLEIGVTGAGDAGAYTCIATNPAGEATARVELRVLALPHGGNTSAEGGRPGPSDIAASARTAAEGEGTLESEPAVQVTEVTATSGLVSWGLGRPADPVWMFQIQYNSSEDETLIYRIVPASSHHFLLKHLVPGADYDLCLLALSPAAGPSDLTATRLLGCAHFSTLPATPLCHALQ
The experiment is described as follows: in-cell Western (cell-based binding assay); apparent; concentration series of soluble PTPσ-Fc (1–250 nM) on SALM3-transfected HEK293T cells in 96-well plates, EGB buffer with 1% BSA, overnight at 4 °C; detected with anti-human IgG IRDye 800CW. The conditions noted are these: one partner purified.

Experiment [2] concerns the target T2, SALM3 LRR-Ig (residues 17–367) (mouse, UniProt Q80XU8 17-367).
T2 construct: SALM3 (LRFN4), mouse, LRR and Ig domains, residues 17-367; also called SALM3 LRR-Ig construct; source: purified
T2 sequence (looked up): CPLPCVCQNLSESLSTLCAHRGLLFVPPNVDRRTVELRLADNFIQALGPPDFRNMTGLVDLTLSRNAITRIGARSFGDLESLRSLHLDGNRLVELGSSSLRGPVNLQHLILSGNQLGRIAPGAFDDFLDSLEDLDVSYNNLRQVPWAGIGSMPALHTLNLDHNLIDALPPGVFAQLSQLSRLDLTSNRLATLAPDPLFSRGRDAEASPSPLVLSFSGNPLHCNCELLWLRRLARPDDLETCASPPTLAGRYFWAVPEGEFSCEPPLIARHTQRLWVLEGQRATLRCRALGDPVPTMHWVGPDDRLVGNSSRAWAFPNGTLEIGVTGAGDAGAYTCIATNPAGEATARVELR
The experiment is described as follows: SEC-SAXS; SALM3 LRR-Ig (60 µM) and PTPσ (80 µM) mixed, 1 h at 4 °C; Superdex 200 PC 3.2/30, 30 mM Tris HCl pH 7.5, 150 mM NaCl, 4 °C; rigid body (CORAL) and ab initio (DAMMIN) modelling. The conditions noted are these: both partners purified.

B1: PTPσ-Fc fusion protein (Fc fusion)
chain: PRFIREPKDQIGVSGGVASFVCQATGDPKPRVTWNKKGKKVNSQRFETIDFDESSGAVLRIQPLRTPRDENVYECVAQNSVGEITIHAKLTVLREDQLPPGFPNIDMGPQLKVVERTRTATMLCAASGNPDPEITWFKDFLPVDPSASNGRIKQLRSGALQIESSEETDQGKYECVATNSAGVRYSSPANLYVRVRRVAPRFSILPMSHEIMPGGNVNITCVAVGSPMPYVKWMQGAEDLTPEDDMPVGRNVLELTDVKDSANYTCVAMSSLGVIEAVAQITVKSLPKAPGTPVV
B1: the Kd in experiment [1] was 22.3 ± 5 nM.

B2: mouse PTPσ Ig1-3-meB+ (residues 33–331) (domain or fragment, UniProt B0V2N1 33-331, looked up)
chain: PRFIREPKDQIGVSGGVASFVCQATGDPKPRVTWNKKGKKVNSQRFETIDFDESSGAVLRIQPLRTPRDENVYECVAQNSVGEITIHAKLTVLREDQLPPGFPNIDMGPQLKVVERTRTATMLCAASGNPDPEITWFKDFLPVDPSASNGRIKQLRSGALQIESSEETDQGKYECVATNSAGVRYSSPANLYVRVRRVAPRFSILPMSHEIMPGGNVNITCVAVGSPMPYVKWMQGAEDLTPEDDMPVGRNVLELTDVKDSANYTCVAMSSLGVIEAVAQITVKSLPKAPGTPVVTENT
notes: Receptor protein tyrosine phosphatase sigma (PTPσ), mouse, Ig1-Ig3 domains, splice form with mini-exon B (meB+), residues 33-331; The meB+ splice form is meant; also called PTPσ_(Ig1-Ig3); PTPσ Ig1-Ig3; source: purified
As to B2, the stoichiometry N (commonly a count of units in the complex or per binding partner) in experiment [2] is 1 PTPσ per SALM3 (2:2 complex).
